Measurements from IntAct's records for PubMed 24510189.

B1: mRNA-decapping enzyme 1A (Homo sapiens), Q9NPI6 (parent)
chain: MEALSRAGQEMSLAALKQHDPYITSIADLTGQVALYTFCPKANQWEKTDIEGTLFVYRRSASPYHGFTIVNRLNMHNLVEPVNKDLEFQLHEPFLLYRNASLSIYSIWFYDKNDCHRIAKLMADVVEEETRRSQQAARDKQSPSQANGCSDHRPIDILEMLSRAKDEYERNQMGDSNISSPGLQPSTQLSNLGSTETLEEMPSGSQDKSAPSGHKHLTVEELFGTSLPKEQPAVVGLDSEEMERLPGDASQKEPNSFLPFPFEQLGGAPQSETLGVPSAAHHSVQPEITTPVLITPASITQSNEKHAPTYTIPLSPVLSPTLPAEAPTAQVPPSLPRNSTMMQAVKTTPRQRSPLLNQPVPELSHASLIANQSPFRAPLNVTNTAGTSLPSVDLLQKLRLTPQHDQIQTQPLGKGAMVASFSPAAGQLATPESFIEPPSKTAAARVAASASLSNMVLAPLQSMQQNQDPEVFVQPKVLSSAIPVAGAPLVTATTTAVSSVLLAPSVFQQTVTRSSDLERKASSPSPLTIGTPESQRKPSIILSKSQLQDTLIHLIKNDSSFLSTLHEVYLQVLTKNKDNHNL
partner: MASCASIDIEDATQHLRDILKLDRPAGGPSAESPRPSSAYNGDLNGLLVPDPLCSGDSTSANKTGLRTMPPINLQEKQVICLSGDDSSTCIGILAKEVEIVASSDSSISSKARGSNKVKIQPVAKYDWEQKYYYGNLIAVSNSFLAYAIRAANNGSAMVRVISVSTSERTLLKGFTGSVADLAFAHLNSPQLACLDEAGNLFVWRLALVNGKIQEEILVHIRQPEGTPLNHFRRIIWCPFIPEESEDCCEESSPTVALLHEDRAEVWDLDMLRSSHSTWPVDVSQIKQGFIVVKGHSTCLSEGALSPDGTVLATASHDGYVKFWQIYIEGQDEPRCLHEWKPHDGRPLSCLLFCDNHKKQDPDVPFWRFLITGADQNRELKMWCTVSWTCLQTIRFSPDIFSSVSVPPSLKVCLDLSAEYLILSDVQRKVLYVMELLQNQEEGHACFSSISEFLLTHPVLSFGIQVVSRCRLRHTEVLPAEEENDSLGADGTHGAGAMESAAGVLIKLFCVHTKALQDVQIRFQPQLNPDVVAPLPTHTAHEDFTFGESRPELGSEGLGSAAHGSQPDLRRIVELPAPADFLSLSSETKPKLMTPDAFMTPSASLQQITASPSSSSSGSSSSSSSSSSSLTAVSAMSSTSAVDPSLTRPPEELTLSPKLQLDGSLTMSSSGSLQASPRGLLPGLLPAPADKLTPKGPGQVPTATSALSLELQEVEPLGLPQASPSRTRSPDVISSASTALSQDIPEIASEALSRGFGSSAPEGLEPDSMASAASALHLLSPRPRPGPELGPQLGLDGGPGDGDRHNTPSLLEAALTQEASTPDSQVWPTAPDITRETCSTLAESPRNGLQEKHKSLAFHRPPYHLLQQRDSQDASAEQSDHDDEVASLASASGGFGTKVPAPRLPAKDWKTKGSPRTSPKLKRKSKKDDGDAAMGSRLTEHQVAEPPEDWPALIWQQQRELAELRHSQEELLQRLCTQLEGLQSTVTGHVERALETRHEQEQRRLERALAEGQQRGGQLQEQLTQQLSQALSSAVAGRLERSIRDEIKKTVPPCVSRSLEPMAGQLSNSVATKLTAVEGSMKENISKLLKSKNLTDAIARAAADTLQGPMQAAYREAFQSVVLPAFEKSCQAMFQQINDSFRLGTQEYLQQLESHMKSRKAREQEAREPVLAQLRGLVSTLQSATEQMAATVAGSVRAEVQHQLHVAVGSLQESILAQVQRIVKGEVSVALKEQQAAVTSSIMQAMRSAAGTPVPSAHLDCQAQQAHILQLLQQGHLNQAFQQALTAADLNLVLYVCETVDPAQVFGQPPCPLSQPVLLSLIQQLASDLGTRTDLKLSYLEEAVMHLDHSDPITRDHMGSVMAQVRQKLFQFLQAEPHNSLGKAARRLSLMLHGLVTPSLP
B2: mRNA-decapping enzyme 1A (Homo sapiens), Q9NPI6 (parent)
chain: B1 chain

Variants of: B1
Conditions: with edc4_human EDC4, Q6P2E9

MEALSRAGQEMSLAALKQHDPYITSIADLTGQVALYTFCPKANQWEKTDIEGTLFVYRRSASPYHGFTIVNRLNMHNLVEPVNKDLEFQLHEPFLLYRNASLSIYSIWFYDKNDCHRIAKLMADVVEEETRRSQQAARDKQSPSQANGCSDHRPIDILEMLSRAKDEYERNQMGDSNISSPGLQPSTQLSNLGSTETLEEMPSGSQDKSAPSGHKHLTVEELFGTSLPKEQPAVVGLDSEEMERLPGDASQKEPNSFLPFPFEQLGGAPQSETLGVPSAAHHSVQPEITTPVLITPASITQSNEKHAPTYTIPLSPVLSPTLPAEAPTAQVPPSLPRNSTMMQAVKTTPRQRSPLLNQPVPELSHASLIANQSPFRAPLNVTNTAGTSLPSVDLLQKLRLTPQHDQIQTQPLGKGAMVASFSPAAGQLATPESFIEPPSKTAAARVAASASLSNMVLAPLQSMQQNQDPEVFVQPKVLSSAIPVAGAPLVTATTTAVSSVLLAPSVFQQTVTRSSDLERKASSPSPLTIGTPESQRKPSIILSKSQLQDTLIHSIKNDSSRLSTSHEVYLQVLTKNKDNHNL [L554S;F561R;L565S] was tested. Which “effect of a mutation on the interaction” value did it give?
Its value is “disrupting interaction strength”.

With MEALSRAGQEMSLAALKAADPYITSIADLTGQVALYTFCPKANQWEKTDIEGTLFVYRRSASPYHGFTIVNRLNMHNLVEPVNKDLEFQLHEPFLLYRNASLSIYSIWFYDKNDCHRIAKLMADVVEEETRRSQQAARDKQSPSQANGCSDHRPIDILEMLSRAKDEYERNQMGDSNISSPGLQPSTQLSNLGSTETLEEMPSGSQDKSAPSGHKHLTVEELFGTSLPKEQPAVVGLDSEEMERLPGDASQKEPNSFLPFPFEQLGGAPQSETLGVPSAAHHSVQPEITTPVLITPASITQSNEKHAPTYTIPLSPVLSPTLPAEAPTAQVPPSLPRNSTMMQAVKTTPRQRSPLLNQPVPELSHASLIANQSPFRAPLNVTNTAGTSLPSVDLLQKLRLTPQHDQIQTQPLGKGAMVASFSPAAGQLATPESFIEPPSKTAAARVAASASLSNMVLAPLQSMQQNQDPEVFVQPKVLSSAIPVAGAPLVTATTTAVSSVLLAPSVFQQTVTRSSDLERKASSPSPLTIGTPESQRKPSIILSKSQLQDTLIHLIKNDSSFLSTLHEVYLQVLTKNKDNHNL [Q18A;H19A] as the variant, how does the “effect of a mutation on the interaction” value read?
Its value is “with no effect”.

With MEALSRAGQEMSLAALKQHDPYITSIADLTGQVALYTFCPKANQWEKTDIEGTLFVYRRSASPYHGFTIVNGSSGHNLVEPVNKDLEFQLHEPFLLYRNASLSIYSIWFYDKNDCHRIAKLMADVVEEETRRSQQAARDKQSPSQANGCSDHRPIDILEMLSRAKDEYERNQMGDSNISSPGLQPSTQLSNLGSTETLEEMPSGSQDKSAPSGHKHLTVEELFGTSLPKEQPAVVGLDSEEMERLPGDASQKEPNSFLPFPFEQLGGAPQSETLGVPSAAHHSVQPEITTPVLITPASITQSNEKHAPTYTIPLSPVLSPTLPAEAPTAQVPPSLPRNSTMMQAVKTTPRQRSPLLNQPVPELSHASLIANQSPFRAPLNVTNTAGTSLPSVDLLQKLRLTPQHDQIQTQPLGKGAMVASFSPAAGQLATPESFIEPPSKTAAARVAASASLSNMVLAPLQSMQQNQDPEVFVQPKVLSSAIPVAGAPLVTATTTAVSSVLLAPSVFQQTVTRSSDLERKASSPSPLTIGTPESQRKPSIILSKSQLQDTLIHLIKNDSSFLSTLHEVYLQVLTKNKDNHNL [R72G;L73S;N74S;M75G] as the variant, how does the “effect of a mutation on the interaction” value read?
The value was “with no effect”.

Variants of: B2
Conditions: with dcp2_human DCP2, Q8IU60

How did the “effect of a mutation on the interaction” value turn out when MEALSRAGQEMSLAALKQHDPYITSIADLTGQVALYTFCPKANQWEKTDIEGTLFVYRRSASPYHGFTIVNGSSGHNLVEPVNKDLEFQLHEPFLLYRNASLSIYSIWFYDKNDCHRIAKLMADVVEEETRRSQQAARDKQSPSQANGCSDHRPIDILEMLSRAKDEYERNQMGDSNISSPGLQPSTQLSNLGSTETLEEMPSGSQDKSAPSGHKHLTVEELFGTSLPKEQPAVVGLDSEEMERLPGDASQKEPNSFLPFPFEQLGGAPQSETLGVPSAAHHSVQPEITTPVLITPASITQSNEKHAPTYTIPLSPVLSPTLPAEAPTAQVPPSLPRNSTMMQAVKTTPRQRSPLLNQPVPELSHASLIANQSPFRAPLNVTNTAGTSLPSVDLLQKLRLTPQHDQIQTQPLGKGAMVASFSPAAGQLATPESFIEPPSKTAAARVAASASLSNMVLAPLQSMQQNQDPEVFVQPKVLSSAIPVAGAPLVTATTTAVSSVLLAPSVFQQTVTRSSDLERKASSPSPLTIGTPESQRKPSIILSKSQLQDTLIHLIKNDSSFLSTLHEVYLQVLTKNKDNHNL [R72G;L73S;N74S;M75G] was run?
Its value is “with no effect”.

Which “effect of a mutation on the interaction” value does the source give for MEALSRAGQEMSLAALKQHDPYITSIADLTGQVALYTFCPKANQWEKTDIEGTLFVYRRSASPYHGFTIVNGLNMHNLVEPVNKDLEFQLHEPFLLYRNASLSIYSIWFYDKNDCHRIAKLMADVVEEETRRSQQAARDKQSPSQANGCSDHRPIDILEMLSRAKDEYERNQMGDSNISSPGLQPSTQLSNLGSTETLEEMPSGSQDKSAPSGHKHLTVEELFGTSLPKEQPAVVGLDSEEMERLPGDASQKEPNSFLPFPFEQLGGAPQSETLGVPSAAHHSVQPEITTPVLITPASITQSNEKHAPTYTIPLSPVLSPTLPAEAPTAQVPPSLPRNSTMMQAVKTTPRQRSPLLNQPVPELSHASLIANQSPFRAPLNVTNTAGTSLPSVDLLQKLRLTPQHDQIQTQPLGKGAMVASFSPAAGQLATPESFIEPPSKTAAARVAASASLSNMVLAPLQSMQQNQDPEVFVQPKVLSSAIPVAGAPLVTATTTAVSSVLLAPSVFQQTVTRSSDLERKASSPSPLTIGTPESQRKPSIILSKSQLQDTLIHLIKNDSSFLSTLHEVYLQVLTKNKDNHNL [R72G] here?
The value was “with no effect”.

Variants of: B2
Conditions: with pnrc2_human PNRC2, Q9NPJ4
pnrc2_human PNRC2, Q9NPJ4, sequence (Q9NPJ4 whole entry): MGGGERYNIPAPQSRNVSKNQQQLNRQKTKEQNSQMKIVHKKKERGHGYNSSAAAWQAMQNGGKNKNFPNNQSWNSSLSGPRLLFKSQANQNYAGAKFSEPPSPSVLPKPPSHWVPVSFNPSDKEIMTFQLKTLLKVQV

How did the “effect of a mutation on the interaction” value turn out when MEALSRAGQEMSLAALKQHDPYITSIADLTGQVALYTFCPKANQWEKTDIEGTLFVYRRSASPYHGFTIVNGSSGHNLVEPVNKDLEFQLHEPFLLYRNASLSIYSIWFYDKNDCHRIAKLMADVVEEETRRSQQAARDKQSPSQANGCSDHRPIDILEMLSRAKDEYERNQMGDSNISSPGLQPSTQLSNLGSTETLEEMPSGSQDKSAPSGHKHLTVEELFGTSLPKEQPAVVGLDSEEMERLPGDASQKEPNSFLPFPFEQLGGAPQSETLGVPSAAHHSVQPEITTPVLITPASITQSNEKHAPTYTIPLSPVLSPTLPAEAPTAQVPPSLPRNSTMMQAVKTTPRQRSPLLNQPVPELSHASLIANQSPFRAPLNVTNTAGTSLPSVDLLQKLRLTPQHDQIQTQPLGKGAMVASFSPAAGQLATPESFIEPPSKTAAARVAASASLSNMVLAPLQSMQQNQDPEVFVQPKVLSSAIPVAGAPLVTATTTAVSSVLLAPSVFQQTVTRSSDLERKASSPSPLTIGTPESQRKPSIILSKSQLQDTLIHLIKNDSSFLSTLHEVYLQVLTKNKDNHNL [R72G;L73S;N74S;M75G] was run?
The value was “with no effect”.
